Results: patent US20190241623A1 (EVAXION BIOTECH A S, published 2019)

What was measured:
[1] = target: T1, MHC Class II molecule DRB1*04:01 (UniProt P01903 26-216; P01911 30-227); assay: peptide:MHC II complex stability assay (Immunitrack)
T1 construct: Assay done by Immunitrack; the construct of the MHC II molecule is not described

[2] = target: T2, MHC Class II molecule DRB1*01:01 (UniProt P01903 26-216; P01911 30-227); assay: as above
T2 construct: Assay done by Immunitrack; the construct of the MHC II molecule is not described

B1: SEQ ID NO 32 (peptide)
peptide: MHFIAISINHRTADV
notes: 15-mer peptide selected in silico from the S. aureus proteomes
binding result [1]: binds
binding result [2]: binds

B2: SEQ ID NO 35 (peptide)
peptide: STFIYKIANERLFSR
notes: as for B1
binding result [1]: binds
binding result [2]: binds

B3: SEQ ID NO 24 (peptide)
peptide: IIKKLFRLPAIKRFE
notes: as for B1
binding result [1]: binds
binding result [2]: binds

B4: SEQ ID NO 22 (peptide)
peptide: FLKLFRITNPIARGL
notes: as for B1
binding result [1]: binds
binding result [2]: binds

B5: SEQ ID NO 27 (peptide)
peptide: KHQIRMLSIPRDTIS
notes: as for B1
binding result [1]: binds
binding result [2]: binds

B6: SEQ ID NO 40 (peptide)
peptide: YFRFQYFNPLKSERY
notes: as for B1
binding result [1]: binds
binding result [2]: binds

B7: SEQ ID NO 34 (peptide)
peptide: SSNVYMFKTALKLAG
notes: as for B1
binding result [1]: binds
binding result [2]: binds

B8: SEQ ID NO 21 (peptide)
peptide: EPINFILKSSTKLKA
notes: as for B1
binding result [1]: binds
binding result [2]: binds

B9: SEQ ID NO 23 (peptide)
peptide: GLYFVAMNNLKAAGQ
notes: as for B1
binding result [1]: binds
binding result [2]: binds

B10: SEQ ID NO 25 (peptide)
peptide: ILLGYFVAQRALVKA
notes: as for B1
binding result [1]: binds
binding result [2]: binds

B11: SEQ ID NO 38 (peptide)
peptide: VLFYLRSNKRQIIEK
notes: as for B1
binding result [1]: binds
binding result [2]: binds

B12: SEQ ID NO 33 (peptide)
peptide: QRHFQIGYNRAARII
notes: as for B1
binding result [1]: binds
binding result [2]: binds

B13: SEQ ID NO 39 (peptide)
peptide: WKRIGRLKSIPIFMY
notes: as for B1
binding result [1]: binds
binding result [2]: binds

B14: SEQ ID NO 29 (peptide)
peptide: KTLFVALNNKARIPE
notes: as for B1
binding result [1]: binds
binding result [2]: binds

B15: SEQ ID NO 28 (peptide)
peptide: KRIFKMSPIHHHFEL
notes: as for B1
binding result [1]: binds
binding result [2]: binds

B16: SEQ ID NO 31 (peptide)
peptide: LMGIRAFRKLLPNIP
notes: as for B1
binding result [1]: binds
binding result [2]: binds

B17: SEQ ID NO 36 (peptide)
peptide: SVTIIKSLQAIRVPF
notes: as for B1
binding result [1]: binds
binding result [2]: binds

B18: SEQ ID NO 37 (peptide)
peptide: TSQFHVLRALRLAQK
notes: as for B1
binding result [1]: binds
binding result [2]: binds

B19: SEQ ID NO 26 (peptide)
peptide: KADALKAITALKLQM
notes: as for B1
binding result [1]: binds
binding result [2]: binds

B20: SEQ ID NO 30 (peptide)
peptide: LDQIIAQANLRLATM
notes: as for B1
binding result [1]: binds
binding result [2]: binds
